Assays:
[1] = tested on: MS2 coat protein; test: apparent KD of MS2 coat protein; designed switch direction (-1 OFF switch, 1 ON switch): 1; higher = weaker reporter binding; settings: Eterna round: R98
Method: (§1)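 RNA-MaP: designed FMN/MS2 RNA switches (84 nt design region) are transcribed on-chip within common flanks and titrated with SNAP-549-labelled MS2 coat protein (about 1-3000 nM) in 100 mM Tris pH 7.5, 80 mM KCl, 4 mM MgCl2, without or with 200 uM FMN. Median apparent KD per design; activation ratio = KD,OFF / KD,ON.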

[2] = tested on: MS2 coat protein; test: apparent KD of MS2 coat protein; higher = weaker reporter binding; settings: Eterna round: R101
Method: as §1

[3] = tested on: MS2 coat protein; test: apparent KD of MS2 coat protein, switch OFF state (with FMN for OFF switches, without FMN for ON switches); designed switch direction (-1 OFF switch, 1 ON switch): 1; higher = weaker reporter binding; settings: FMN input: 0 or 200 uM; Eterna round: R93 (includes R88 designs)
How it was run: (§2)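 The designed RNA switches were transcribed on-chip from Illumina sequencing clusters. In 100 mM Tris-HCl pH 7.5, 80 mM KCl and 4 mM MgCl2, without or with constant ligand, they were titrated with SNAP-549-labelled MS2 coat protein from 0.7 or 1.5 nM to 3 µM in twofold steps. Apparent KD is the per-design median of normalised cluster binding-curve fits.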

[4] = tested on: MS2 coat protein; test: apparent KD of MS2 coat protein, switch ON state; designed switch direction (-1 OFF switch, 1 ON switch): 1; higher = weaker reporter binding; settings: FMN input: 0 or 200 uM; Eterna round: R93 (includes R88 designs)
How it was run: as §2

Row | Sequence | apparent KD of MS2 coat protein ([1]; input ligand: FMN 200 uM) | apparent KD of MS2 coat protein ([1]; input ligand: none) | also measured
1 | AAAACAUGAGGAUCACCCAUGUAAAGAUCGGUUAAUAGAAGUGAGGAUAUACAAAAUUUUAGGUAGUAGAAGGCACAGGGUACA [JR_SSNG3_Sub046] | 0.0315 µM | 0.033 µM | –
2 | AAAACAUGAGGAUCACCCAUGUAAAGAUCGGUUAAUAGAAGUGAGGAUAUGCUUAAAAUAAGGUAGCAGAAGGCACUGGGUACA [JR_SSNG3_Sub040] | 0.0278 µM | 0.0234 µM | –
3 | AAAACAUGAGGAUCACCCAUGUAUUGAACGGUUAAUAAAAGUGAGGAUAUACAAAAUUUUAUAUAGUAGAAGGCACUGGGUACA [JR_SSNG3_Sub009] | 0.0208 µM | 0.0212 µM | –
4 | AAAUAAAAUAUAGGAUAUGGAAACAUGAGGAUCACCCAUGUAUGAUAAGAUAAAUAAUGAUAUAGCCAGAAGGAUAAAAUAUAA [LRO006_SS NG 2] | 0.0427 µM | 0.033 µM | –
5 | AAAUAACUCGAAGGAUAUCAGGGUGCACCUCAGUAAAACUGAGGUGCACCCUGAGAAGGUCGAGGAUCACCCGACCUAAAUAAA [#SharedSequence SLExNG1: 5-2] (puzzle (switch architecture): Small Loop Exclusion NG 1) | – | – | apparent KD of MS2 coat protein ([2]; input ligand: FMN 200 uM): 0.0198 µM; apparent KD of MS2 coat protein ([2]; input ligand: none): 0.00838 µM
6 | AAAUAACUCGAAGGAUAUGACCCUCGAGGUGACUAAAAGUCACCUCGAGGGUCAGAAGGUCGAGGAUCACCCGACCUAAAUAAA [#SharedSequence SLExNG1: 5-1] (puzzle (switch architecture): Small Loop Exclusion NG 1) | – | – | apparent KD of MS2 coat protein ([2]; input ligand: FMN 200 uM): 0.0368 µM; apparent KD of MS2 coat protein ([2]; input ligand: none): 0.0102 µM
7 | AAAUAACUUGAAGGAUAUGACCCUCGAGGUGACUAAAAGUCACCUCGAGGGUCAGAAGGUCGAGGAUCACCCGACCUAAAUAAA [#SharedSequence SLExNG1: 6-1] (puzzle (switch architecture): Small Loop Exclusion NG 1) | – | – | apparent KD of MS2 coat protein ([2]; input ligand: FMN 200 uM): 0.00669 µM; apparent KD of MS2 coat protein ([2]; input ligand: none): 0.00714 µM
8 | ACAGGUCGUGAGAAGGCGUGUGGCACCGUCGAAAGACGGUGCAAUUAAGAUCUUCGAGGAUCACCCGAGGAUAUCACGACCUGA [#SharedSequence - IExNG2: 18] (puzzle (switch architecture): Inverted Exclusion NG 2) | – | – | apparent KD of MS2 coat protein ([2]; input ligand: FMN 200 uM): 0.0704 µM; apparent KD of MS2 coat protein ([2]; input ligand: none): 0.0186 µM
9 | ACUGUCGCGUGAGGAUAUGGUCUGCAGUGCUGACCAGAAGGCAUGUCGAUAGACAUGAGGAUCACCCAUGUGGUUAGGGCGGAA [salish99_SSNG1_R02_019] | 0.194 µM | 0.298 µM | –
10 | AGAACAUGAGGAUCACCCAUGUGAAGGUCGGCGUAUAAGGGUGAGGAUAUGCUUAAAAUAAGGAAGCAGAAGGUACUUGGUGCG [SameState #80 NG3] | 0.0753 µM | 0.165 µM | –
11 | AGGAGAAAUGUAGGAUAUGGGCGGGCGUACGGGCAAAGCGCGUACGCCCGCCCAGAAGGACAUGAGGAUCACCCAUGUUUCCCU [#Lowering the energy 1] (puzzle (switch architecture): Small Loop Exclusion NG 1) | – | – | apparent KD of MS2 coat protein ([2]; input ligand: FMN 200 uM): 0.016 µM; apparent KD of MS2 coat protein ([2]; input ligand: none): 0.0145 µM
12 | AGGCAGCACUGCUACGUGGCCUCACAUGAGGAUCACCCAUGUAAGGAUAUCGGGUAGCAUUACCACGAGAAGGUACAUAAGAGG [Ceisle] (puzzle (switch architecture): Exclusion NG 3) | – | – | apparent KD of MS2 coat protein ([2]; input ligand: FMN 200 uM): 0.0258 µM; apparent KD of MS2 coat protein ([2]; input ligand: none): 0.015 µM
13 | AUUACAUGAGGAUCACCCAUGUACAGAACGUUUCAUUAAAGUGAGGAUAUACGAAAUUUAAAAGCGUAGAAGGCACUGGGUACA [SameState #43 NG3] | 0.0242 µM | 0.0278 µM | –
14 | CCUGCACCUCAAGGAUAUCCAGUCGAAACGACUGGAGAAGGUGAGGAUCACCCACCUAGCCUGACGAAAGUCAGGCAUGCAGGA [#SharedSequence - ExNG1-1] (puzzle (switch architecture): Exclusion NG 1) | – | – | apparent KD of MS2 coat protein ([2]; input ligand: FMN 200 uM): 0.0328 µM
15 | GCAUACAUUCGAGGAUAUCGGUGAACAAAUUAGCGAGAAGGCGAUAUAAUUUUUAAACUUAUUGACAUGAGGAUCACCCAUGUA [JR_SSNG1_Sub011] | 0.0205 µM | 0.0248 µM | –
16 | GGACAUGUCGUUUACAUGAGGAUCACCCAUGUCGAUGGACAUGAGGAUAUGGAUCCGAAUCGGAUCCAGAAGGCAUGCAUGUCC [SameState #7 NG3] | 0.0179 µM | 0.0452 µM | –
17 | GGACGUCACAUAAACAUGAGGAUCACCCAUGUCAAAAGACAUGAGGAUAUGGAUGCGAAACGCAUCCAGAAGGCAUGGACGUCC [EliMod 4 - Jieux - Same State NG 3] | 0.0573 µM | 0.728 µM | –
18 | GGACUCACUUGAGGAUAUCGAGUGGAUAACACUCGAGAAGGCAGGGAAACCUGAGGAUCACCCAGGUAAGAGUCCAAUAAUAAA [Same State NG1 - A3C, U17G Submission 2D] | 0.0199 µM | 0.0421 µM | –

Row | Sequence | apparent KD of MS2 coat protein ([1]; input ligand: FMN 200 uM) | apparent KD of MS2 coat protein ([1]; input ligand: none) | also measured
19 | GGAGACCUCACAGGAUAUGCUGGACUUUGUCCAGCAGAAGGGUGAAAACAUGAGGAUCACCCAUGUAUGGUCUCCAAAUUUAAU [Denovo 57] | 0.0304 µM | 0.632 µM | –
20 | GGUCGACUUCAAGGAUAUGGACUGCUUUGCAGUCCAGAAGGUGAGGAUCACCCAUCUACGGUCAGGUUUCUGACCGAUCGACCU [#AddUracilToBrourdLoops 8 - Jieux - Exclusion NG1] (puzzle (switch architecture): Exclusion NG 1) | – | – | apparent KD of MS2 coat protein ([2]; input ligand: FMN 200 uM): 0.102 µM; apparent KD of MS2 coat protein ([2]; input ligand: none): 0.0734 µM
21 | GGUCGUCACAUAUACAUGAGGAUCACCCAUGUCAAAAGACAUGAGGAUAUGGAUCCUAAUUGGAUCCAGAAGGCAUGGACGACC [#HiddenHairpinInALoop - Mat - Same State NG 3 - JL Mod - D11] (puzzle (switch architecture): Same State NG 3) | – | – | apparent KD of MS2 coat protein ([2]; input ligand: FMN 200 uM): 0.0214 µM; apparent KD of MS2 coat protein ([2]; input ligand: none): 0.412 µM
22 | GGUUUCAGGAUAGGAUAUGGCGUGACAUGGCGGCCAGAAGGAUCCUCGGGAACAUGAGGAUCACCCAUGUGACCGUGUCGAGUC [Biveedve] | 0.19 µM | 0.741 µM | –
23 | GUAGCAUACCGAGGAUAUUCUCCGGAAAACCGGACAUGAGGAUCACCCAUGUGGCGAAAGCCUUGGGAGAAGGCGGAAUGCUAC [Xeinanis 75 29] | 0.0186 µM | 0.0344 µM | –
24 | GUAGCUAUCGCAGGAUAUCCUCAGGCGAAAGCCACAUGAGGAUCACCCAUGUAAAUAAAGAAUUUGGAGAAGGGCGAUAGCUAC [jl-sng2-2.34 Eli mod] | 0.0247 µM | 0.374 µM | –
25 | UAGAAGUGGUGAGGAUAUGAAUACGGCUCAUUAUCCUACAUGAGGAUCACCCAUGUGGGUGGUCGUCAGAAGGCACUGCUAUCG [Edretirige] | 0.181 µM | 0.0323 µM | –
26 | UAGAUCACCGAAGGAUAUGGGCAGAGUCCCGCUACAUGAGGAUCACCCAUGUCAGUCGGUCGUUUUCAGAAGGUCGGAAUGAUU [Zadi] | 0.0571 µM | 0.0194 µM | –
27 | UCACUCAAGUUAGGAUAUGGAUCGGAAAACGAUCCAGAAGGAACAUGAAAACAUGAGCAUCAGCCAUGUUCCAGAAACGAGUGA [SameSame 4 - Jieux - Same State NG 1] | 0.0236 µM | – | –
28 | UCUGCUAUCGCAGGAUAUUACAUGGGAAAGAAUACAUGAGGAUCACCCAUGUAAAAGAUCAUAAAUAAGAAGGGCGAUAGCAGA [Lame State 7 - Jieux - Same State NG 2] | 0.116 µM | 1.53 µM | –
29 | UGCAGGAAGAGAGAGGAUAUCCAAAGGAAAACAUGAGGAUCACCCAUGUAAAAGGUAGGAAAUUGGGAGAAGGCUCAAGAGAGAG [salish99-ss2-098] | – | – | apparent KD of MS2 coat protein [3]: 0.0283 µM; apparent KD of MS2 coat protein [4]: 0.0331 µM
30 | UGCCAAUUGGCACAGGAUAUGAGCAUGCUCACAUGAGGAUCACCCAUGUGAUUACCAACGCAAUAUCAGAAGGGUGCCCUCGUCA [Relageor] | – | – | apparent KD of MS2 coat protein [3]: 0.0504 µM; apparent KD of MS2 coat protein [4]: 0.0321 µM
31 | UGGAGACAUGAGGAUCACCCAUGUGAGAAGAGGCGAGGAUAUCGAAAAAAAAAAAAAAAACGAGAAGGCGCGAGAU [salish99-SS1-008] | – | – | apparent KD of MS2 coat protein [3]: 0.0221 µM; apparent KD of MS2 coat protein [4]: 0.0259 µM
32 | UGGAGACAUGAGGAUCACCCAUGUGAGAAGAGGCGAGGAUAUCGAAAGAAAGAAGAGAAACGAGAAGGCGCGAGCC [salish99-SS1-048] | – | – | apparent KD of MS2 coat protein [3]: 0.0499 µM; apparent KD of MS2 coat protein [4]: 0.0362 µM
33 | UGGAGACAUGAGGAUCACCCAUGUGAGAAGAGGCGAGGAUAUCGAAAGAAAGAAGAGAAACGAGAAGGCGCGAGGC [salish99-SS1-047] | – | – | apparent KD of MS2 coat protein [3]: 0.0276 µM; apparent KD of MS2 coat protein [4]: 0.0433 µM
34 | UGGAGACAUGAGGAUCACCCAUGUGAGAAGAGGCGAGGAUAUCGAAAGAAAGAAGAGAAACGAGAAGGCGCGAGUU [salish99-SS1-035] | – | – | apparent KD of MS2 coat protein [3]: 0.0416 µM; apparent KD of MS2 coat protein [4]: 0.0272 µM
35 | UUACAGUGCGGGUAGGAUAUGUAGGGUGGUACAUGAGGAUCACCCAUGUAUCCACCCUUCGACCGGCAGAAGGGCCUGUCACUAC [Atarzale] | – | – | apparent KD of MS2 coat protein [3]: 0.0128 µM; apparent KD of MS2 coat protein [4]: 0.012 µM
36 | UUACGUCCCGUUUACAUGAGGAUCACCCAUGUCGAAAGACAUGAGGAUAUGCUACCUAGUUGGUAGCAGAAGGCGUGGACGUCG [salish99_SSNG3_r02_005] | 0.0871 µM | 0.121 µM | –

Source: the supplement of paper PMC9170038
